Reference: article PMC2811012 (Nucleic Acids Research, 2009)
Each block holds one compound with its values, some of them ahead of it.

How the values were obtained:
[1] = target: T1, GST-MPP8 (MPP8 chromodomain) (Homo sapiens, UniProt Q99549); test: AlphaScreen competitive binding, GST-MPP8/b-H3K9me3
T1 sequence (Q99549 50-120): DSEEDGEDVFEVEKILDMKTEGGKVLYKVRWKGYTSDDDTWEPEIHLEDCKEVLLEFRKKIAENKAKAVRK

[2] = target: Mouse heterochromatin protein 1-beta chromodomain-containing region (amino acids 1–185) with N-terminal GST tag (mouse) (UniProt P83917); test: AlphaScreen or HTRF
[3] = target: Human M-phase phosphoprotein chromodomain-containing region (amino acids 50–120) with N-terminal GST tag (human) (UniProt Q99549); test: AlphaScreen or HTRF

Mouse heterochromatin protein 1-beta chromodomain-containing region (amino acids 1–185) with N-terminal GST tag (mouse), sequence (P83917 whole entry, the tested form may be a part): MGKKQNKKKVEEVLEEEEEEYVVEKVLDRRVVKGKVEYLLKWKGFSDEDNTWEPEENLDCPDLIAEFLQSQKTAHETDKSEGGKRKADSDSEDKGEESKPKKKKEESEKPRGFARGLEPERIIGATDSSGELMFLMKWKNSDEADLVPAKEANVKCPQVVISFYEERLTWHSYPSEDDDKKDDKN

Compound: C[C@H](N)C(=O)N[C@@H](CCCNC(=N)N)C(=O)N[C@H](C(=O)N[C@@H](CCCCN)C(=O)N[C@@H](CCC(N)=O)C(=O)N[C@H](C(=O)N[C@@H](C)C(=O)N[C@@H](CCCNC(=N)N)C(=O)N[C@@H](CCCCN)C(=O)N[C@@H](CO)C(=O)N[C@H](C(=O)NCC(=O)NCC(=O)N[C@@H](CCCCN)C(=O)N[C@@H](C)C(=O)N1CCC[C@H]1C(=O)N[C@@H](CCCNC(=N)N)C(=O)N[C@@H](CCCCN)C(=O)O)[C@@H](C)O)[C@@H](C)O)[C@@H](C)O [Peptide H3]
EC50 [1]: 160 µM

AlphaScreen signal [2]: 7800 c.p.s. | AlphaScreen signal [3]: 26000 c.p.s.
Compound: biotinylated histone H3 peptide trimethylated at Lys4

fold AlphaScreen signal over b-H3K4me3 [2]: 3.3 fold | fold AlphaScreen signal over b-H3K4me3 [3]: 1.7 fold
Compound: biotinylated histone H3 peptide trimethylated at Lys9
